Assay results reported in patent publication US20070071745A1 (Hoffmann-La Roche, published 2007).
Changes are numbered by the printed parent chain. Names may count otherwise.

Tests used:
human CD20 [1] = target: T1, human CD20 (human, UniProt P11836 1-297); test: flow cytometry on Raji B-cell lymphoma cells (FIG. 11)
T1 construct: whole, on cells; also called human CD20 antigen; target antigen (CD20)
T1 sequence (looked up): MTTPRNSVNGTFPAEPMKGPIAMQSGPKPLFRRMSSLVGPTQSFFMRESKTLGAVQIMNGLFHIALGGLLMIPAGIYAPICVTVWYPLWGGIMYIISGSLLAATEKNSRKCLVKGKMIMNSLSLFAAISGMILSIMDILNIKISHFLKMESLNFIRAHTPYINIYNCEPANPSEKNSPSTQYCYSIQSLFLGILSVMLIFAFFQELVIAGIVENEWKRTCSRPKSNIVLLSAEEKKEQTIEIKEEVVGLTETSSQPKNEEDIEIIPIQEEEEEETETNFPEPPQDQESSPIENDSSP
Description: (§1) 200,000 cells in 180 μl FACS buffer (PBS containing 2% FCS and 5 mM EDTA) were transferred to 5 ml polystyrene tubes. Next, 20 μl of 10-fold concentrated anti-CD20 antibody samples (1-5000 ng/ml final concentration) or PBS only were added, and the tubes were incubated at 4° C. for 30 min. Subsequently, samples were washed twice with FACS buffer and pelleted at 300×g for 3 min. Supernatant was aspirated off and cells were taken up in 100 μl FACS buffer. Next, 1 μl anti-Fc-specific F(ab′)2-FITC fragments (Jackson Immuno Research Laboratories, USA) was added and the tubes were incubated at 4° C. for 30 min. Samples were washed twice with FACS buffer and taken up in 500 μl of FACS buffer containing 0.5 μg/ml PI for analysis by Flow Cytometry. Binding was determined by plotting the geometric mean fluorescence against the antibody concentrations.

human CD20 [2] = target: T1, human CD20; test: flow cytometry on Raji B-cell lymphoma cells (FIG. 2)
Description: as §1

human CD20 [3] = target: T1, human CD20; test: flow cytometry on Raji B-cell lymphoma cells (FIG. 22)
Description: as §1

human CD20 [4] = target: T1, human CD20; test: flow cytometry on Raji B-cell lymphoma cells (FIGS. 2, 9 to 13)
Description: as §1

human CD20 [5] = target: T1, human CD20; test: flow cytometry on Raji B-cell lymphoma cells (methods described above)
Description: as §1

human CD20 [6] = target: T1, human CD20; test: flow cytometry on Raji B-cell lymphoma cells (FIGS. 2, 9 to 13); the same paragraph adds that the binding of B-HL11 to B-HL17 does not differ drastically in EC50 and stoichiometry
Description: as §1

B1: B-HH1 paired with the BKV1 humanized B-ly1 light chain (antibody, human IgG1, V domains shown)
VH: QVQLVQSGAEVKKPGSSVKVSCKASGYTFSYSWMSWVRQAPGQGLEWMGRIFPGDGDTDYAQKFQGRVTITADKSTSTAYMELSSLRSEDTAVYYCARNVFDGYWLVYWGQGTLVTVSS
VL: DIVMTQTPLSLPVTPGEPASISCRSSKSLLHSNGITYLYWYLQKPGQSPQLLIYQMSNLVSGVPDRFSGSGSGTDFTLKISRVEAEDVGVYYCAQNLELPYTFGGGTKVEIKR
notes: also called BHH1-BKV1
binding result (human CD20 [1]): binds

B2: B-HH3 paired with the BKV1 humanized B-ly1 light chain (antibody, human IgG1, V domains shown)
VH: B1 VH with T28A, S35N, A61N, Q62G, Q65K, Y95L
VL: B1 VL
notes: also called BHH3-BKV1
binding result (human CD20 [1]): binds

B3: B-HL12 (G9A, V48M) paired with the BKV1 light chain (antibody, human IgG1, V domains shown)
VH: EVQLVESGAGLVKPGGSLRLSCAASGFTFSYSWMNWVRQAPGKGLEWMGRIFPGDGDTDYNGKFKGRVTITADKSTSTAYMELSSLRSEDTAVYYCARNVFDGYWLVYWGQGTLVTVSS
VL: B1 VL
binding result (human CD20 [2]): binds

B4: B-HH8 with the BKV1 light chain (antibody, human IgG1, V domains shown)
VH: B1 VH with S16A, S30T, S35N, A61N, Q62G, Q65K
VL: B1 VL
binding result (human CD20 [3]): binds

B5: BHH2-BKV1 humanized IgG1 B-ly1 anti-human CD20 antibody (antibody, V domains shown)
VH: B1 VH with T28A, S35N, A61N, Q62G, Q65K
VL: B1 VL
notes: Non-glycoengineered form; also called BHH2-BKV1-wt; humanized B-ly1
binding result (human CD20 [4]): binds

B6: BHL13-BKV1 (antibody, human IgG1, V domains shown)
VH: B3 VH with A9G, L11V
VL: B1 VL
notes: also called B-HL13 (L11V, V48M)
binding result (human CD20 [2]): binds

B7: BHL8-BKV1 (antibody, human IgG1, V domains shown)
VH: B3 VH with A9G, M48V
VL: B1 VL
notes: also called BHL8-BKV1 wt
binding result (human CD20 [4]): binds

B8: BHL14-BKV1 (antibody, human IgG1, V domains shown)
VH: B3 VH with A9G, V12K
VL: B1 VL
notes: also called B-HL14 (V12K, V48M)
binding result (human CD20 [2]): binds

B9: BHL16-BKV1 (antibody, human IgG1, V domains shown)
VH: B3 VH with A9G, L20V
VL: B1 VL
notes: also called BHL16-BKV1 W1; B-HL16 (L20V, V48M)
binding result (human CD20 [2]): binds

B10: B-HH9 with the BKV1 light chain (antibody, human IgG1, V domains shown)
VH: B1 VH with S16A, S35N, A61N, Q62G, Q65K
VL: B1 VL
binding result (human CD20 [3]): binds

B11: BHH2-A (V11L) paired with a BKV1 light chain (antibody, human IgG1, V domains shown)
VH: B1 VH with V11L, T28A, S35N, A61N, Q62G, Q65K
VL: B1 VL
binding result (human CD20 [5]): binds

B12: BHL11-BKV1 (antibody, human IgG1, V domains shown)
VH: B3 VH with E1Q, A9G, M48V
VL: B1 VL
notes: also called B-HL11 (having the mutation E1Q)
binding result (human CD20 [6]): binds

B13: BHL17-BKV1 (antibody, human IgG1, V domains shown)
VH: B3 VH with A9G
VL: B1 VL
notes: also called BHL17-BKV1 W1; B-HL17 (V48M)
binding result (human CD20 [2]): binds

B14: BHL15-BKV1 (antibody, human IgG1, V domains shown)
VH: B3 VH with A9G, G16S
VL: B1 VL
notes: also called BHL15-BKV1 W1; B-HL15 (G16S, V48M)
binding result (human CD20 [2]): binds

B15: BHH2-B (K12V) paired with a BKV1 light chain (antibody, human IgG1, V domains shown)
VH: B1 VH with K12V, T28A, S35N, A61N, Q62G, Q65K
VL: B1 VL
binding result (human CD20 [5]): binds
